Columns and labels:
[1] = target: recombinant pig BMP15 (pig); assay: cross-linking; recombinant HEK-293 conditioned media (positive control lanes); 2 mM BS3, room temperature, 30 min; reducing SDS-PAGE; Western blot with Mab61A (BMP15) or Mab37A (GDF9)
[2] = target: native red deer GDF9 (red deer (endogenous in red deer oocytes)); assay: cross-linking; oocyte lysates of sheep, red deer and pig; 2 mM BS3, room temperature, 30 min, reducing SDS-PAGE, beside non-reducing and reducing lanes without cross-linker; Western blot with Mab61A or Mab37A
[3] = target: recombinant pig GDF9 (pig) (UniProt Q6GUA6); assay: cross-linking; recombinant HEK-293 conditioned media (positive control lanes); 2 mM BS3, room temperature, 30 min; reducing SDS-PAGE; Western blot with Mab61A (BMP15) or Mab37A (GDF9)
recombinant ovine GDF9 = target: T1, recombinant ovine GDF9 (sheep (ovine), UniProt O77681 319-453); assay: SPR; ProteOn XPR36; biotinylated hBMPR2 captured (~200 RU) on a streptavidin-coated GLC chip; log2 serial dilutions of partially purified (dialysed, concentrated) 293H-secreted GDF9 or BMP15 as analytes; 25 °C, 100 µl/min; 10 mM HEPES, 500 mM NaCl, 3.4 mM EDTA, 0.005% Tween 20; association 120 s; analyte concentrations not known; settings: one partner purified
T1 construct: also called recovGDF9; sheep GDF9; source: 293H-secreted media, dialysed and concentrated (partially purified)
T1 sequence (looked up): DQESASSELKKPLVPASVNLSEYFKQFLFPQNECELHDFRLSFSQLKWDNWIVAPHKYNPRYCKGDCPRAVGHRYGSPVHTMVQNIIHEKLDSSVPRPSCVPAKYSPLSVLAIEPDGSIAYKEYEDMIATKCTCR

Molecule: recombinant pig BMP15 (ligand)
- stoichiometry N [1]: 2

Molecule: native red deer GDF9 (natural protein)
- stoichiometry N [2]: 2

Molecule: recombinant pig GDF9 (from UniProt Q6GUA6 1-444) (ligand)
- stoichiometry N [3]: 2

B1: recombinant human (h)BMPR2 ectodomain (receptor, UniProt Q13873 27-151, looked up)
chain: SQNQERLCAFKDPYQQDLGIGESRISHENGTILCSKGSTCYGLWEKSKGDINLVKQGCWSHIGDPQECHYEECVVTTTPPSIQNGTYRFCCCSTDLCNVNFTENFPPPDTTPLSPPHSFNRDETI
modifications: N-biotinylated using EZ-Link sulfo-NHS-LC-biotin (1:1.2 molar ratio)
notes: human BMPR2, extracellular domain, amino acids 27 to 151; captured on a streptavidin-coated sensor chip by its biotin; also called hBMPR2 ectodomain protein; Type 2 receptor; source: baculoviral infected Sf9 insect cells, purified
- Kd (recombinant ovine GDF9): ~1 nM
